Measurements: patent publication US20240117054A1 (DRAGONFLY THERAPEUTICS, published 2024)
Positions count from the first letter of the chain named.

T1: human FLT3 (hFLT3) expressed on cells (human, UniProt P36888 27-993)
T1 construct: whole, on cells; One molecule for all cell lines that carry human FLT3; also called RMA-hFLT3; FLT3 on REH cells
T1 sequence (looked up): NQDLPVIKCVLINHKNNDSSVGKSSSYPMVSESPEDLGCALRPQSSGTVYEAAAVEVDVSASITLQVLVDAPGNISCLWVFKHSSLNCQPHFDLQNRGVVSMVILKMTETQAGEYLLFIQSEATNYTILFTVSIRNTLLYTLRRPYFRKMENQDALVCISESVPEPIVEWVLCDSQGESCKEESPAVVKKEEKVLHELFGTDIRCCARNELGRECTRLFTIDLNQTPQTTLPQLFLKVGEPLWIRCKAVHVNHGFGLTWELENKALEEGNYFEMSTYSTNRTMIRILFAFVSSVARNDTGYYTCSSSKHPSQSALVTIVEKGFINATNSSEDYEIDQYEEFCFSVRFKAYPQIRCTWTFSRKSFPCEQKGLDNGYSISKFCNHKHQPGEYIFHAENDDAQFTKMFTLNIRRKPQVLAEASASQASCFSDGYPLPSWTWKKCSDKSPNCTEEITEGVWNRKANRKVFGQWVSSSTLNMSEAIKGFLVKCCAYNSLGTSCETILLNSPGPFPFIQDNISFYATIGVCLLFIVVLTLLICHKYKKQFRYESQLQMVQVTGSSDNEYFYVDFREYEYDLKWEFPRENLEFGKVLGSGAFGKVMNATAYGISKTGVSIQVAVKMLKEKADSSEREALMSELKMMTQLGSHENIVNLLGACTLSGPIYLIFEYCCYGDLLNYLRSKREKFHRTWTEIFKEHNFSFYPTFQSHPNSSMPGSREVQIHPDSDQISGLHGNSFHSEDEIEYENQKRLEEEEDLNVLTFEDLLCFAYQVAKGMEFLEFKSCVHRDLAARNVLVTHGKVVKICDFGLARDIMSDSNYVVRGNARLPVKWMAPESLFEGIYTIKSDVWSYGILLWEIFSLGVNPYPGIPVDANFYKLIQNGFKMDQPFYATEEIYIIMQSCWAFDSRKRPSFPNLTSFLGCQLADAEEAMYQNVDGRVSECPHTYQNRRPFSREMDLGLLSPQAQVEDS

T2: cynomolgus monkey FLT3 (cFLT3) expressed on RMA cells (cynomolgus monkey, UniProt A0A2K5VQ48 27-993)
T2 construct: whole, on cells; also called RMA-cFLT3; cynomolgus FLT3
T2 sequence: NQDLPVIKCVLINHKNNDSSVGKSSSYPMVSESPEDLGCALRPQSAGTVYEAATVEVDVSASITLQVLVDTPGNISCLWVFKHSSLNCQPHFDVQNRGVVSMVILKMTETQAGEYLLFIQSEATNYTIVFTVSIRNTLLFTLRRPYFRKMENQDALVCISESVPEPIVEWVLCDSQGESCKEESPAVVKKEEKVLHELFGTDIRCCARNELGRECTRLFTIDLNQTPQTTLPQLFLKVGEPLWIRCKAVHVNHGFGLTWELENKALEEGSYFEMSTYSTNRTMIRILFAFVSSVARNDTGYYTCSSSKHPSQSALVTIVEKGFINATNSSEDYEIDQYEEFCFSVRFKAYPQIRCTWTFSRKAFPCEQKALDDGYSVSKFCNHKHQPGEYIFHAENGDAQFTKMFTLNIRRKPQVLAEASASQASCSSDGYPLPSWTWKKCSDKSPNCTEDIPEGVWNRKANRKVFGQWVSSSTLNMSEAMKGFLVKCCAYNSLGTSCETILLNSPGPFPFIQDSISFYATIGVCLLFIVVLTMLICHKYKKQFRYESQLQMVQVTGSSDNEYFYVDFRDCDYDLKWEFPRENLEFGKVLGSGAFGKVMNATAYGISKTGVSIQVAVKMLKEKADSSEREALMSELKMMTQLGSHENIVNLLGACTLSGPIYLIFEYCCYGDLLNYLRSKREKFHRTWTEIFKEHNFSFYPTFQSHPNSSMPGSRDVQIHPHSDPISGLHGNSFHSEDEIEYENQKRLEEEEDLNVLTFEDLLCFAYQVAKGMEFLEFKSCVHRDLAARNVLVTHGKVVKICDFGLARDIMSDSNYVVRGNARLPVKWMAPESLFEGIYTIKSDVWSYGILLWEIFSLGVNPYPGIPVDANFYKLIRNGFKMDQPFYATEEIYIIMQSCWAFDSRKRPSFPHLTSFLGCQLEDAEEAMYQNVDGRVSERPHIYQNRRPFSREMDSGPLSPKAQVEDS

T3: FLT3-T227M expressed on MOLM-13 cells (human, UniProt P36888 27-993)
T3 construct: whole, on cells; also called hFLT3-T227M; FLT3 with T227M mutation
T3 sequence (looked up): T1 sequence (looked up) with T201M

T4: FLT3-ITD expressed on MV4-11 cells (human, UniProt P36888 27-543)
T4 construct: whole, on cells; the ITD itself is not described; also called hFLT3-ITD; FLT3 with the ITD mutation
T4 sequence (looked up): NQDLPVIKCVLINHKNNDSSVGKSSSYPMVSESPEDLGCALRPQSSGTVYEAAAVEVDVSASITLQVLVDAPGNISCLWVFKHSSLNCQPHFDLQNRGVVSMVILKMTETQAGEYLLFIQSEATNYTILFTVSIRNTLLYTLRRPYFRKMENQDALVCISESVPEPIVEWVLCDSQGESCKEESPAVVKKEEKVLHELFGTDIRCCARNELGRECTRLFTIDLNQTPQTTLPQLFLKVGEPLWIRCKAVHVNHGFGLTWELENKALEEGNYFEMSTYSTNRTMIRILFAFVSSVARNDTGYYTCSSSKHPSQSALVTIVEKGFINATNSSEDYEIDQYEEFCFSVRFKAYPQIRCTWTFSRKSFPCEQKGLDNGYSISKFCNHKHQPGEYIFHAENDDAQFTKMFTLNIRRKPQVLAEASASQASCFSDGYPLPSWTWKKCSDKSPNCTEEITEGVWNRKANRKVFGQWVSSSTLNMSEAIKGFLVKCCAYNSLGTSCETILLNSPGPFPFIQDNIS

B1: GB102 monoclonal antibody in the human IgG1 format (antibody, V domains shown)
VH: QVQLVQSGAEVKKPGASVKVSCKASGYTFTRYVMHWVRQAPGQRLEWMGFINPYNDDTKYNEKFKGRVTITRDTSASTAYMELSSLRSEDTAVYYCARWRQLGSLDSWGQGTTVTVSS
VL: DIVMTQSPDSLAVSLGERATINCRASESVDTYGSSFVHWYQQKPGQPPKLLIYLASNLESGVPDRFSGSGSGTDFTLTISSLQAEDVAVYYCQQNNEEPWTFGGGTKVEIK
notes: also called parental mAb
B2: F3′-GB102 (bispecific antibody, human IgG1, kappa)
chain: DIVMTQSPDSLAVSLGERATINCRASESVDTYGSSFVHWYQQKPGQPPKLLIYLASNLESGVPDRFSGSGSGTDFTLTISSLQAEDVAVYYCQQNNEEPWTFGCGTKVEIKGGGGSGGGGSGGGGSGGGGSQVQLVQSGAEVKKPGASVKVSCKASGYTFTRYVMHWVRQAPGQCLEWMGFINPYNDDTKYNEKFKGRVTITRDTSASTAYMELSSLRSEDTAVYYCARWRQLGSLDSWGQGTTVTVSSGSDKTHTCPPCPAPELLGGPSVFLFPPKPKDTLMISRTPEVTCVVVDVSHEDPEVKFNWYVDGVEVHNAKTKPREEQYNSTYRVVSVLTVLHQDWLNGKEYKCKVSNKALPAPIEKTISKAKGQPREPRVYTLPPCRDELTKNQVSLTCLVKGFYPSDIAVEWESNGQPENNYKTTPPVLVSDGSFTLYSKLTVDKSRWQQGNVFSCSVMHEALHNHYTQKSLSLSPG
heavy: EVQLVESGGGLVKPGGSLRLSCAASGFTFSSYSMNWVRQAPGKGLEWVSSISSSSSYIYYADSVKGRFTISRDNAKNSLYLQMNSLRAEDTAVYYCARGAPIGAAAGWFDPWGQGTLVTVSSASTKGPSVFPLAPSSKSTSGGTAALGCLVKDYFPEPVTVSWNSGALTSGVHTFPAVLQSSGLYSLSSVVTVPSSSLGTQTYICNVNHKPSNTKVDKKVEPKSCDKTHTCPPCPAPELLGGPSVFLFPPKPKDTLMISRTPEVTCVVVDVSHEDPEVKFNWYVDGVEVHNAKTKPREEQYNSTYRVVSVLTVLHQDWLNGKEYKCKVSNKALPAPIEKTISKAKGQPREPQVCTLPPSRDELTENQVSLTCLVKGFYPSDIAVEWESNGQPENNYKTTPPVLDSDGSFFLYSWLTVDKSRWQQGNVFSCSVMHEALHNHYTQKSLSLSPG
light: DIQMTQSPSSVSASVGDRVTITCRASQGISSWLAWYQQKPGKAPKLLIYAASSLQSGVPSRFSGSGSGTDFTLTISSLQPEDFATYYCQQGVSFPRTFGGGTKVEIKRTVAAPSVFIFPPSDEQLKSGTASVVCLLNNFYPREAKVQWKVDNALQSGNSQESVTEQDSKDSTYSLSSTLTLSKADYEKHKVYACEVTHQGLSSPVTKSFNRGEC
notes: also called FLT3-targeting TriNKET

Legend:
[1] = target: T1, human FLT3 (hFLT3) expressed on cells; assay: flow cytometry on REH cells, anti-human IgG secondary antibody, fold over background (FOB)
From the text: (§1) Isogenic cell lines ectopically expressing human and cynomolgus monkey FLT3 were used to assess cross-reactivity between human and cynomolgus monkey FLT3. […] cancer cell line RMA expressing hFLT3 or cFLT3 was used to assess tumor antigen binding of FLT3-targeting TriNKET and parental mAb. The human AML cell lines MOLM-13 and MV4-11 and the human ALL cell line REH were used to assess binding ability of the TriNKET or parental mAb. In particular, MOLM-13 cells and MV4-11 cells, which expressed FLT3-T227M and FLT3-ITD, respectively, were used to assess the ability of the FLT3-targeting TriNKET and parental mAb to bind mutant FLT3.
(§2) The cells were then incubated with a fluorophore conjugated anti-human IgG secondary antibody and were analyzed by flow cytometry. The mean fluorescence intensity (MFI) values were normalized to secondary antibody only controls to obtain fold over background (FOB) values.

[2] = target: T2, cynomolgus monkey FLT3 (cFLT3) …; assay: flow cytometry on RMA-cFLT3 cells, anti-human IgG secondary antibody, fold over background (FOB)
From the text: as §1, §2

[3] = target: T3, FLT3-T227M expressed on MOLM-13 cells; assay: flow cytometry on MOLM-13 cells (FLT3-T227M), anti-human IgG secondary antibody, gMFI
From the text: as §1, §2

[4] = target: T1, human FLT3 (hFLT3) expressed on cells; assay: flow cytometry on RMA-hFLT3 cells, anti-human IgG secondary antibody, fold over background (FOB)
From the text: as §1, §2

[5] = target: T4, FLT3-ITD expressed on MV4-11 cells; assay: flow cytometry on MV4-11 cells (FLT3-ITD), anti-human IgG secondary antibody, gMFI
From the text: as §1, §2

| Binder | EC50 (read off the curve) [1] [nM] | EC50 (read off the curve) [2] [nM] | EC50 (read off the curve) [3] [nM] | EC50 (read off the curve) [4] [nM] | EC50 (read off the curve) [5] [nM] |
| --- | --- | --- | --- | --- | --- |
| B1 | ~1 | ~0.6 | ~2 | ~0.5 |  |
| B2 | ~5 | ~1 |  | ~1 | ~1 |
